From the supplement of paper PMC11136658

Test system: peptide library, one residue held at a place counted from the Y acceptor
Assay: relative phosphorylation of the sub-library (ratio to the mean residue at this position); higher = residue favoured
Summary of the method: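 Every value reflects phosphorylation relative to the mean randomized residue. The sum of the 18 randomized residues, or 16 in the Ser/Thr-free library, served to normalize intensities at each position, which were then multiplied by that number. Intensities came from phosphorimaging with ImageQuant of biotinylated Tyr-centred peptides captured on streptavidin membranes after 90 min with purified recombinant kinases and 50 μM ATP plus γ-32P-ATP.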

Sequence of PKMYT1, construct: Full length, human (Q99640 whole entry, looked up): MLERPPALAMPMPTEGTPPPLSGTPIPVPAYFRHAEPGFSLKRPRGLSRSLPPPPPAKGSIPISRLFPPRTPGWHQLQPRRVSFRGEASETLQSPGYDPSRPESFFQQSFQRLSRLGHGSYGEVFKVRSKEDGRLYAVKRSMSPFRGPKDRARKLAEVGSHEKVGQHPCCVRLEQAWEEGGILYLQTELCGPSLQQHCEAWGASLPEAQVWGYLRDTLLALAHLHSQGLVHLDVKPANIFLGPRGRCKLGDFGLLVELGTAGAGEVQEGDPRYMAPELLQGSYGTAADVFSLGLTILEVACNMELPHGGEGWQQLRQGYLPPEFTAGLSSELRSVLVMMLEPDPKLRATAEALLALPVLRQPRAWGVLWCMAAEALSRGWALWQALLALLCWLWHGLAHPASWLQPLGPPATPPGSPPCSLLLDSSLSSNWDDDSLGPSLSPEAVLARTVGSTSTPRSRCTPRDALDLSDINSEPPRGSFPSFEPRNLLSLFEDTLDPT
Sequence of PDHK4, construct: Full length, human (Q16654 whole entry, looked up): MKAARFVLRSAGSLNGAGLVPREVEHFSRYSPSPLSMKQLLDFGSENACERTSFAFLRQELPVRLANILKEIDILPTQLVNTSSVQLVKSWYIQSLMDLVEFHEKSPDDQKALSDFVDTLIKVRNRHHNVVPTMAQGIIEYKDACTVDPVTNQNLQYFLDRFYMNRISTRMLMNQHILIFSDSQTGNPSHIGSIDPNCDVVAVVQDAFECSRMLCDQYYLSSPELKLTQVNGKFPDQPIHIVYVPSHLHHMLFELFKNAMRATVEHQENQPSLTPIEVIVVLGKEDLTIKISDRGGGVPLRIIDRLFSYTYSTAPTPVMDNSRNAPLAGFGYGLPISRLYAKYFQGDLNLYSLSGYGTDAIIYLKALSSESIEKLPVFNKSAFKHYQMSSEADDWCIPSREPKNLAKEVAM

PDHK4, construct: Full length, human (from UniProt Q16654)
relative phosphorylation
Settings | at +1 | at +2 | at +3 | at +4 | at +5 | at -1 | at -2 | at -3 | at -4 | at -5
A fixed | 0.747 | 0.56 | 0.742 | 0.698 | 0.589 | 0.81 | 0.808 | 0.801 | 0.946 | 0.872
D fixed | 1.19 | 1.6 | 1.29 | 1.41 | 1.34 | 1.15 | 1.15 | 1.25 | 1.27 | 1.31
E fixed | 1.04 | 1.2 | 1.49 | 1.26 | 1.33 | 1.02 | 1.11 | 0.838 | 1.11 | 1.17
F fixed | 0.751 | 0.966 | 0.945 | 0.996 | 1.01 | 0.723 | 0.874 | 0.873 | 0.94 | 0.934
G fixed | 1.01 | 0.938 | 1.02 | 0.95 | 1.05 | 1.17 | 1.24 | 1.26 | 1.19 | 1.1
H fixed | 0.998 | 1.01 | 0.995 | 1.11 | 1.03 | 1.05 | 0.911 | 0.777 | 0.983 | 1.11
I fixed | 0.568 | 0.546 | 0.652 | 0.669 | 0.722 | 0.654 | 0.654 | 0.568 | 0.739 | 0.773
K fixed | 1.04 | 0.95 | 0.777 | 0.863 | 0.777 | 1.14 | 0.926 | 1.25 | 0.945 | 1.02
L fixed | 0.798 | 0.809 | 0.798 | 1.1 | 1.03 | 0.823 | 1.1 | 0.99 | 0.827 | 0.827
M fixed | 0.695 | 0.776 | 0.891 | 0.92 | 0.968 | 0.75 | 0.796 | 0.712 | 0.822 | 0.809
N fixed | 1.49 | 1.3 | 1.16 | 1.15 | 1.06 | 1.34 | 1.21 | 1.14 | 1.01 | 1.07
P fixed | 1.15 | 1.1 | 1.09 | 1.06 | 0.957 | 1.27 | 1.22 | 1.74 | 1.1 | 1.11
Q fixed | 1.39 | 1.42 | 1.19 | 1.26 | 1.21 | 1.32 | 1.11 | 1.24 | 1.02 | 1.03
R fixed | 1.17 | 0.976 | 0.885 | 0.812 | 0.798 | 1.11 | 1.09 | 0.868 | 1.06 | 0.994
V fixed | 0.572 | 0.565 | 0.604 | 0.644 | 0.703 | 0.539 | 0.652 | 0.645 | 0.669 | 0.681
W fixed | 1.39 | 1.28 | 1.47 | 1.1 | 1.44 | 1.13 | 1.15 | 1.05 | 1.37 | 1.18
pThr fixed | 1.31 | 1.69 | 1.35 | 1.51 | 1.1 | 1.43 | 1.19 | 1.42 | 1.32 | 1.43
pTyr fixed | 1.1 | 1.18 | 0.974 | 1.03 | 1.43 | 1.09 | 1.09 | 0.858 | 1.18 | 1.28

PINK1, construct: Full length, Tribolium castaneum (from UniProt D6WMX4)
relative phosphorylation
Settings | at +1 | at +2 | at +3 | at +4 | at +5 | at -1 | at -2 | at -3 | at -4 | at -5
A fixed | 0.901 | 0.835 | 0.881 | 0.879 | 0.893 | 0.907 | 0.869 | 0.893 | 0.948 | 0.916
D fixed | 0.823 | 0.834 | 0.831 | 0.914 | 0.84 | 0.931 | 0.892 | 0.906 | 1.05 | 1.09
E fixed | 0.789 | 0.792 | 0.875 | 0.938 | 0.813 | 1.22 | 0.916 | 0.938 | 1.42 | 1.04
F fixed | 1.43 | 1.12 | 1.08 | 1.07 | 1.05 | 1.17 | 1.11 | 0.986 | 1.1 | 0.984
G fixed | 0.902 | 0.767 | 0.78 | 0.909 | 0.88 | 1.15 | 0.931 | 0.838 | 0.884 | 0.936
H fixed | 1.23 | 1.15 | 1.07 | 1.1 | 1.07 | 0.97 | 1.05 | 1.08 | 1.01 | 1.09
I fixed | 0.847 | 0.804 | 0.852 | 0.84 | 0.832 | 1 | 0.922 | 0.781 | 0.868 | 0.888
K fixed | 0.937 | 1.59 | 1.31 | 1.32 | 1.31 | 1 | 1.13 | 1.2 | 1.03 | 1.18
L fixed | 0.737 | 0.831 | 0.881 | 0.882 | 0.876 | 0.814 | 0.889 | 0.862 | 0.793 | 0.82
M fixed | 0.762 | 1.01 | 0.959 | 0.869 | 0.891 | 0.819 | 0.824 | 0.849 | 0.798 | 0.85
N fixed | 0.936 | 1 | 0.91 | 0.954 | 1.02 | 0.948 | 1.21 | 0.981 | 0.871 | 0.893
P fixed | 0.778 | 0.786 | 0.909 | 0.885 | 0.876 | 0.911 | 0.843 | 0.851 | 0.828 | 0.911
Q fixed | 0.862 | 0.989 | 0.973 | 0.99 | 1.02 | 0.998 | 0.996 | 1.09 | 0.934 | 0.887
R fixed | 1.16 | 1.71 | 1.61 | 1.57 | 1.68 | 1.3 | 1.36 | 1.82 | 1.35 | 1.35
V fixed | 0.784 | 0.805 | 0.857 | 0.797 | 0.816 | 0.853 | 0.911 | 0.819 | 0.817 | 0.874
W fixed | 2.12 | 0.972 | 1.23 | 1.09 | 1.15 | 1 | 1.14 | 1.11 | 1.31 | 1.29
pThr fixed | 0.939 | 0.843 | 0.735 | 0.99 | 0.826 | 1.29 | 0.841 | 1.06 | 1.04 | 1.06
pTyr fixed | 1.3 | 0.83 | 0.872 | 1.26 | 0.978 | 1.25 | 0.995 | 1.2 | 1.16 | 1.11

PKMYT1, construct: Full length, human (from UniProt Q99640)
relative phosphorylation
Settings | at +1 | at +2 | at +3 | at +4 | at +5 | at -1 | at -2 | at -3 | at -4 | at -5
A fixed | 0.864 | 0.982 | 0.813 | 1.11 | 0.947 | 1.04 | 1.05 | 1.2 | 1.2 | 1.16
D fixed | 0.69 | 0.754 | 0.728 | 0.889 | 0.933 | 0.756 | 0.814 | 0.784 | 0.792 | 0.741
E fixed | 0.834 | 0.775 | 0.66 | 0.833 | 0.979 | 0.845 | 0.915 | 0.837 | 0.84 | 0.772
F fixed | 0.794 | 1.12 | 1.55 | 1.01 | 1.03 | 0.72 | 1.01 | 1.09 | 1.06 | 1.18
G fixed | 1.64 | 1.08 | 1.01 | 1.18 | 1.03 | 2.03 | 1.4 | 1.14 | 1.27 | 0.902
H fixed | 0.813 | 0.945 | 0.911 | 1.11 | 1.13 | 0.945 | 1.14 | 1.06 | 1.01 | 1.15
I fixed | 1.29 | 1.03 | 1.24 | 1.1 | 1 | 0.863 | 1.09 | 0.996 | 0.901 | 1.02
K fixed | 1 | 1.32 | 0.831 | 1.09 | 1 | 1.02 | 0.978 | 0.943 | 1.03 | 1.2
L fixed | 0.691 | 0.935 | 0.973 | 0.928 | 0.912 | 0.705 | 0.791 | 0.867 | 0.758 | 0.886
M fixed | 0.837 | 0.935 | 0.988 | 0.966 | 0.936 | 0.751 | 0.897 | 0.883 | 0.875 | 0.908
N fixed | 0.774 | 0.873 | 0.728 | 0.785 | 0.905 | 0.834 | 0.982 | 0.93 | 0.87 | 0.885
P fixed | 1.35 | 1.14 | 1.09 | 0.925 | 1.02 | 1.45 | 1 | 1.11 | 1.14 | 0.842
Q fixed | 0.865 | 0.821 | 0.667 | 0.787 | 0.853 | 0.828 | 0.777 | 0.867 | 0.928 | 0.855
R fixed | 1.18 | 1.25 | 0.938 | 1.12 | 1.29 | 1.18 | 1.08 | 1.23 | 1.26 | 1.31
V fixed | 1.39 | 1.07 | 0.967 | 0.998 | 0.918 | 1.01 | 1.09 | 1.04 | 0.936 | 0.928
W fixed | 0.992 | 0.962 | 1.92 | 1.16 | 1.12 | 1.02 | 0.995 | 1.02 | 1.15 | 1.26
pThr fixed | 0.868 | 0.729 | 0.691 | 0.838 | 0.635 | 1.04 | 0.974 | 0.888 | 0.912 | 0.719
pTyr fixed | 0.831 | 0.87 | 0.7 | 0.883 | 0.789 | 1.83 | 0.974 | 1.05 | 0.841 | 0.849
